{
  "source": "patent US20260168983A1",
  "about": "“YaxAB NANOPORE, NANOPORE SYSTEM COMPRISING SAME AND APPLICATIONS THEREOF” (KOREA RESEARCH INSTITUTE OF BIOSCIENCE AND BIOTECHNOLOGY, priority 2022, published 2026)",
  "target": "Bcl-xL protein, Q07817",
  "sequence (Q07817 1-209)": "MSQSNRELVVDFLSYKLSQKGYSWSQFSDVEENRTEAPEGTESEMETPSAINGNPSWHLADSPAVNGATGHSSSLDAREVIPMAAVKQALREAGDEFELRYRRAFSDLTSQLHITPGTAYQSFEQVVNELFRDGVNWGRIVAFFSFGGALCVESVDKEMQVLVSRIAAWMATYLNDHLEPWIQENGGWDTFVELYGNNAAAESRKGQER",
  "test": "YaxAB nanopore; Bcl-xL with a mix of four competing peptides at 1:15",
  "data": [
    {"binder": "GQVGRQAAIIGDDINR (modifications not checked)", "note": "[Bak_BH3_L78A, Q16611 72-87]", "values": [
      {"measurement": "signal frequency of the Bcl-xL-peptide complex", "value": 3, "unit": "%"}
    ]},
    {"binder": "GQVGRQLAIIGDDANR (modifications not checked)", "note": "[Bak_BH3_I85A, Q16611 72-87]", "values": [
      {"measurement": "signal frequency of the Bcl-xL-peptide complex", "value": 7, "unit": "%"}
    ]}
  ]
}
